In paper PMC3229572:
Several values for one entry are separate records, joined by “and”; a condition that tells them apart may be missing. Equal values may be shown once.

Target: recombinant full length M2 protein of influenza virus A/Hong Kong/8/68 (H3N2) (influenza A virus A/Hong Kong/8/68 (H3N2))

recombinant full length M2 protein of influenza virus A/Hong Kong/8/68 (H3N2) (natural protein)
stoichiometry N: 4 and 8
